Drawing on paper PMC4076583 (The Journal of Experimental Medicine, 2014), this text covers Kd for three molecules.

Assay [1] deals with recombinant mouse Galectin-9 (mouse, UniProt O08573 1-353). In words: SPR. (SPR reads the build-up and loss of mass on a sensor chip optically.)
Assay [2] deals with recombinant human Galectin-9 (human, UniProt O00182 1-355). In words: SPR.
recombinant human Galectin-9, sequence (O00182 whole entry): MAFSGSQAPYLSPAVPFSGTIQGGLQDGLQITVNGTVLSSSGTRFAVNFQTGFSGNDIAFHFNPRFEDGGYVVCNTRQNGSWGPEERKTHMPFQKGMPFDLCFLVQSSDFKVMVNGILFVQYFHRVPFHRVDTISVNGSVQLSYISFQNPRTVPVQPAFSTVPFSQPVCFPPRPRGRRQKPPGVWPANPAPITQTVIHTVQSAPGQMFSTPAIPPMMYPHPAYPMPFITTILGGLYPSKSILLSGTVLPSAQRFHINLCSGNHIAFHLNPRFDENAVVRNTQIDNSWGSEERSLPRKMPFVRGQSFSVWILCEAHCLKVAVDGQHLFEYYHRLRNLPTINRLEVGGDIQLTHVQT

recombinant mouse Galectin-9, sequence (O08573 whole entry): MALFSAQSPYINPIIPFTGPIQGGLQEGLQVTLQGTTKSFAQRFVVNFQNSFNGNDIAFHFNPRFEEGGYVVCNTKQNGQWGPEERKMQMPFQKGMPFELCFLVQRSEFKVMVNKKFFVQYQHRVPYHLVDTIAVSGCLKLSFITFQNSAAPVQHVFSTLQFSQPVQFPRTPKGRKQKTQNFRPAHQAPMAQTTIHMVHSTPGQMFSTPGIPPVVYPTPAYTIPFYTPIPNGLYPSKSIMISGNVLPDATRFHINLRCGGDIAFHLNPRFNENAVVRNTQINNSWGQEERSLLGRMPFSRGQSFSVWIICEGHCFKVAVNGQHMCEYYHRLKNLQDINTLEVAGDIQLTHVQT

B1: mouse 4-1BB.Fc CRD4 mutant (amino acids 118–187) (Fc fusion, UniProt P20334 118-187, looked up)
chain: TCSLGTFNDQNGTGVCRPWTNCSLDGRSVLKTGTTEKDVVCGPPVVSFSPSTTISVTPEGGPGGHSLQVL
One may read the Kd as the free concentration of one partner at which half of the binding sites on the other are occupied at equilibrium, for simple one-to-one binding. For the molecule B1, the Kd in assay [1] is ~18 nM.

B2: human 4-1BB.Fc CRD4 mutant (amino acids 119–186) (Fc fusion, UniProt Q07011 119-186, looked up)
chain: DCCFGTFNDQKRGICRPWTNCSLDGKSVLVNGTKERDVVCGPSPADLSPGASSVTPPAPAREPGHSPQ
Take B2: the Kd in assay [2] is ~35 nM.

B3: mouse 4-1BB.Fc, full-length extracellular 4-1BB (CRD1–4, amino acids 24–187) fused to human IgG1 Fc (Fc fusion, UniProt P20334 24-187, looked up)
chain: VQNSCDNCQPGTFCRKYNPVCKSCPPSTFSSIGGQPNCNICRVCAGYFRFKKFCSSTHNAECECIEGFHCLGPQCTRCEKDCRPGQELTKQGCKTCSLGTFNDQNGTGVCRPWTNCSLDGRSVLKTGTTEKDVVCGPPVVSFSPSTTISVTPEGGPGGHSLQVL
B3: the equilibrium dissociation constant (Kd) in assay [1] is ~11 nM.
